This is an account of results in patent US20250367292A1, “HLA SUPERAGONISTS AND USES THEREOF” (UNIVERSITY HEALTH NETWORK, priority 2021, published 2025).

The assay has as its target T1, HLA-A*24:02-restricted peptides (Homo sapiens, UniProt P04439, D101N/D140Y/D185E/E176V/E190D/F33S/G103R/G107R/I119L/I121M/I306V/K335N/L105A/L180Q/L300P/N151K/N90K/Q86E/Q94H/R106L/R138H/R89G/T104I/T345S/V100E/W191G/Y123F).
T1 construct: T2 cells transduced with the full-length HLA-A*24:02 genes tagged with ΔNGFR; Furin-SGSG-F2A-linked truncated NGFR (ΔNGFR) co-expression marker (C); expressed in transfected cells; host or cells: T2 cells, retrovirally transduced (pMX)
Description: Peptide-HLA binding assay (biotinylated peptide, SA-PE, flow cytometry). The class given is cell-based. The conditions noted are these: irrelevant control peptides. How it is done: T2-A24 (Wild-type) cells, or T2-A24 cells with a single amino acid substitution at position 81, 82, or 83 were pulsed with 50 μg/ml of biotinylated peptide overnight at 37° C. After intensive washing, the cells were stained by PE-conjugated streptavidin (SA-PE), washed and fluorescence intensity was measured by flow cytometry analysis.

As for “HLA-A*24:02 (A81L): HLA-A*24:02 with an Ala to Leu substitution at position 81 (A81L), corresponding to SEQ ID NO: 1”, the “peptide presentation by T2 cells towards non-HLA-A*24:02 restricted peptides” value is given as “no increase”.
